Data: patent publication US20250340628A1, “COMPOSITIONS AND METHODS FOR TREATING MACROPHAGE ACTIVATION SYNDROME” (TJ Biopharma (Hangzhou) Co., Ltd., priority 2022, published 2025)
“Also recorded” adds a separate entry of the source.

Experiments:
[1] = type: physicochemical
Method: Three different buffer systems, sodium acetate, histidine hydrochloride and sodium dihydrogen phosphate, were initially evaluated, at various different pH levels, for IMH001. […] The next step evaluated a number of excipients, including sucrose, trehalose, mannitol, proline, arginine hydrochloride, glycine, solidum chloride, PS20 and PS80. According to the changes in stability (CEX-HPLC) results at 50° C. for 1 week, comparison was carried out for the formulation with different excipients. […] It was unknown, however, whether the selected buffer and excipient would allow a protein solubility of IMH001 suitable for subcutaneous injection at a high concentration. The solubility and viscosity of the protein at concentrations of 100 mg/ml and 150 mg/ml in histidine hydrochloride buffer system (pH 5.8) were therefore assessed. […] PS80 (Polysorbate 80) was then tested for its ability to improve durability and stability of the candidate formulations, at different concentrations of sucrose for a protein concentration of 100 mg/ml.

[2] = system: macrophage activation syndrome (MAS) model in NOG-EXL mice (overexpress human IL-3 and GM-CSF); test: macrophage activation syndrome (MAS) model induced by CBMC transplantation in NOG-EXL mice; type: in vivo
Method: This study is performed to evaluate the in vivo efficacy of IMH001 (see sequences in Table 1), a GM-CSF neutralization antibody, on delaying the disease progression in a macrophage activation syndrome (MAS) model (induced by CBMC transplantation) in NOG-EXL mice. This lymphocyte-independent, effector-driven MAS mice model can be established by engrafting human umbilical cord blood (UCB) into NOG-EXL mice. NOG-EXL (NOD.Cg-Prkdc^scidIL2g^tm1SugTg (SV40/HTLV-IL3, CSF2) is a gene modified strain based on NOG (NOD.Cg-Prkdc^scidIL2^tm1Sug) mice, which is immunodeficient and overexpress human IL-3 and GM-CSF continuously, which can enrich the myeloid cell populations, including Dc, monocyte and macrophage, following human stem cell engraftment. A total of 46 NOG-EXL and 8 NOG mice were used in the study.
Five to six-week-old NOG-EXL mice were irradiated with 1 Gy before tail vein injection of OKT3-pretreated cord blood mononuclear cells (CBMC) reconstitution. The day of reconstruction was defined as Day 0. OKT3-pretreated CBMC engrafted NOG-EXL mice were treated with biweekly i.p. doses of PBS or 10 mg/kg IMH001 starting from week 1 of engraftment. Animal body weights, CBC counting, and serum ferritin were measured at indicated time points.
Four NOG mice (G1) and 14 NOG-EXL mice (6 mice for G2 and 8 mice for G3, respectively) were dosed one week after reconstruction (Day 7), twice a week for 15 weeks. The grouping and dosing regimens were as follows in Table 2:
Body weight: The body weight of mice was measured and recorded once a week after CBMC transplantation.
CBC counting: Whole blood was collected from mice and counted by a CBC machine at week 4, 8 and 16. And at the end of the study, i.e. week 16, total bone marrow viable cells were also counted. Before blood collection, mice were anesthetized with 3-4% isoflurane.
Ferritin, fibrinogen and triglycerides: Serum was collected from mice at week 8 and 16. Then measured separately using ELISA kits. Prior to blood collection, mice were anesthetized with 3-4% isoflurane.
Experimental endpoint collection: The endpoint is Day 112/Week 16. Spleens were collected and weighed from all mice of each groups; cell smears from bone marrow, sections of liver and spleen were collected for Wright Giemsa staining to detect the presence of hemophagocytosis. Activated lymphoid tissue, spleen/lymph nodes, liver, and meninges were collected for H&E section to detect inflammatory cell infiltration and depletion of lymphoid follicles in spleen/lymph nodes.
All data statistical analysis methods involved in this project needed to be consistent with the protocol, and the results were expressed as mean±SEM. Firstly, F-test (IDBS E-WorkBook 10.5.0 (64 bit) © TDBS) was used to analyze the homogeneity of variance. If the variance was homogeneity (p>0.05), one-way ANOVA was carried out. T-test was used for two groups comparation, and Dunnett's multiple comparison method was used for multiple groups comparation. If the variance was heterocedasticity (p≤0.05), Kruskal Wallis method was performed for nonparametric test, U-test was used for two groups comparation (Kruskal Wallis parameter test has significant difference, p≤0.05), and Dunn's multiple comparison method was used for multiple groups comparation (Kruskal Wallis parameter test has no significant difference, p>0.05). p<0.05 was considered as significant difference.

[3] = 100 mg/ml and 150 mg/ml in 20 mmol/L histidine hydrochloride pH 5.8, 4° C. and 25° C. for 48 hours
[4] = serum, week 8 and 16, 10 mg/kg i.p. BIW

B1: IMH001: humanized IgG1 anti-GM-CSF neutralization antibody with VH of SEQ ID NO:1 and VL of SEQ ID NO:2 (antibody, V domains shown)
VH: EVQLVQSGAEVKKPGASVKVSCKASGYTFTSHYLHWVRQAPGQGLEWMGWIFPGDDKTKYNEKFKGRVTMTSDTSISTAYMELSRLRSDDTAVYYCARGTKYLNWNFDVWGQGTTVTVSS
VL: DIQLTQSPSFLSASVGDRVTITCKANQNVGTTLAWYQQKPGKSPKALIYSASYRYSGVPDRFSGSGSGTDFTLTISSLQPEDFATYFCHQYTTYPLTFGGGTKVEIK
antibody stability in buffer systems [1]: stable | changes in appearance color, clarity, OD350, protein concentration and viscosity [1, 3]: no obvious changes | viscosity [1, 3]: lower than 10 cP | viscosity of samples with PS80 and different sucrose concentrations ([1]; protein concentration 100 mg/ml): acceptable | body weight ([2]; 10 mg/kg i.p. BIW (G3) vs vehicle control group (G2), Day 63 to Day 112, p<0.05): significantly increased; also recorded: reduced weight loss | disease development / progression (overall) ([2]; 10 mg/kg i.p. BIW for 15 weeks): completely reversed; also recorded: showed efficacy | NEUT percent ([2]; 10 mg/kg i.p. BIW vs untreated): recovery | RBC number in peripheral blood (anemia) ([2]; 10 mg/kg i.p. BIW vs untreated NOG-EXL, in words): effectively improve; also recorded: ameliorated anemia | HGB level ([2]; 10 mg/kg i.p. BIW vs untreated, Day 56): significantly higher; also recorded: increase | monocyte percent ([2]; 10 mg/kg i.p. BIW, considered pharmacological effect): decrease | total bone marrow viable cells (mean value) ([2]; day 112, 10 mg/kg i.p. BIW, vs NOG-EXL untreated 9.55, p=0.182): 11.6 | RBC cell number ([2]; peripheral blood CBC, Day 56, 10 mg/kg i.p. BIW, vs untreated 6.45, p<0.001): 8.17 | Fibrinogen [2, 4]: No significant changes | Triglyceride [2, 4]: No significant changes | Ferritin level ([2]; serum, wk 8 and wk 16, 10 mg/kg i.p. BIW vs untreated): effectively control; also recorded: significantly reduce; also recorded: inhibited ferritin increase | inflammatory infiltration (histopathology) ([2]; wk 16, H&E, liver and meninx): decreased; also recorded: improved significantly | lymphocyte exhaustion (histopathology) ([2]; wk 16, H&E, spleen and lymph nodes): effectively reduce; also recorded: improved significantly | hemophagocytosis (histopathology) ([2]; wk 16, Wright Giemsa staining of bone marrow smears, liver and spleen sections): effectively prevent; also recorded: improved significantly
